For experiment [1], the target named is T1, CEA-derived … (SEQ ID NO: 71)-HLA-A*0201 complex (biotin on the C-terminal biotinylation tag (enzymatic, BirA)).
T1 construct: also called soluble biotinylated HLA-A2-peptide complex; not shown: C-terminal biotinylation tag that replaces the transmembrane and cytoplasmic domains
Put plainly: Biacore SPR, pMHC immobilised. The procedure: SPR measures changes in refractive index expressed in response units (RU) near a sensor surface within a small flow cell, a principle that can be used to detect receptor ligand interactions and to analyse their affinity and kinetic parameters. The probe flow cells were prepared by immobilising the pMHC complexes in flow cells via biotin-tag binding. The assay was then performed by passing soluble ILT over the surfaces of the different flow cells at a constant flow rate, measuring the SPR response in doing so.

Experiment [2] concerns the target Class I pMHC on Mel 624 target cells. The experiment in a line: cell-based or functional assay.

Numbering of substitutions follows the chain as printed. Values joined by “and” are separate entries in the source; they are usually repeats but may differ in a detail not shown here. Identical values can stand only once.

B1: SEQ ID NO 60 (receptor)
chain: MGHLPKPTLWAEPGSVITMDQPVTLRCQGGQETQQYRLYREKKTAPWITRIPQELVKKGQFPIPSITWEHAGRYRCYYGSDTRQWSASSDPLELVVTGVYIKPTLSAQPSPVVNSGGNVTLQCDSQVAFDGFILCKEGEDDHPQCLNSQPHARGSSRAIFSVGPVSPSRRWRYRCYAYDSNSPYEWTRGSDLLELDVDG
On to B1, for which, in experiment [1], the Kd (in general, the concentration at which binding is half-saturated) is at most 1000 nM and the dissociation rate constant (koff) (in general, the first-order rate constant of dissociation) was at most 2 s⁻¹.

B2: SEQ ID NO 22 (receptor)
chain: MAGHLPKPTLWAEPGSVITMDQPVTLRCQGGQETQEYRLYREKKTAPWITRIPQELVKKGQFPIPSITWEHAGRYRCYYGSDTSQWSASSDPLELVVTGVYIKPTLSAQPSPVVNSGGNVTLQCDSQVAFDGFILCKEGEDEHPQCLNSQPHARGSSRAIFSVGPVSPSRRWWYRCYAYGRWLPYEWSLPSDLLELDVD
In experiment [1], B2 had a Kd of at most 1000 nM and a koff of at most 2 s⁻¹.

B3: soluble truncated variant of the Wild-Type ILT-2 molecule (receptor)
chain: MGHLPKPTLWAEPGSVITQGSPVTLRCQGGQETQEYRLYREKKTAPWITRIPQELVKKGQFPIPSITWEHAGRYRCYYGSDTAGRSESSDPLELVVTGAYIKPTLSAQPSPVVNSGGNVTLQCDSQVAFDGFILCKEGEDEHPQCLNSQPHARGSSRAIFSVGPVSPSRRWWYRCYAYDSNSPYEWSLPSDLLELLVL
notes: also called soluble wild-type ILT-2; soluble two domain form of the wild-type ILT-2
In experiment [1], B3 displayed a Kd of around 6000 nM and a koff of 2.4 s⁻¹.

B4: soluble high affinity c83 (SEQ ID NO: 19) ILT-like polypeptide (receptor)
chain: MAGHLPKPTLWAEPGSVITMDQPVTLRCQGGQETQEYRLYREKKTAPWITRIPQELVKKGQFPIPSITWEHAGRYRCYYGSDTSQWSASSDPLELVVTGVYIKPTLSAQPSPVVNSGGNVTLQCDSQVAFDGFILCKEGEDEHPQCLNSQPHARGSSRAIFSVGPVSPSRRWWYRCYAYMSWSPYEWSLPSDLLELDVDG
notes: also called clone 83 (c83) ILT-2 polypeptide
Take B4: in experiment [1], the Kd was at most 1000 nM and the koff was at most 2 s⁻¹. Moreover, in experiment [2], the “Average IC50, inhibition of CTL activation (IFN-γ ELISPOT)” value worked out at 96 nM; the “IC50, inhibition of CTL activation (IFN-γ ELISPOT, Mel 624 target cells, MART-1 specific T cell clone KA/C5)” value was 76 nM and 94 nM and 117 nM.

B5: SEQ ID NO 29 (receptor)
chain: MHLPKPTLWAEPGSVITLQSPVTLRCQGGQETQQYRLYREKKTAPWITRIPQELVKKGQFPIPSITWEHAGRYRCYYGSDTRQWSASSDPLELVVTGVYIKPTLSAQPSPVVNSGGNVTLQCDSQVAFDGFILCKEGEDDHPQCLNSQPHARGSSRAIFSVGPVSPSRRWRYRCYAYMSWSPYEWSLPSDLLELDVDG
In experiment [1], B5 yielded a Kd of at most 1000 nM and a koff of at most 2 s⁻¹.

B6: SEQ ID NO 28 (receptor)
chain: B5 chain with S181A
Turning to B6, in experiment [1], the Kd is at most 1000 nM and the koff is at most 2 s⁻¹.

B7: SEQ ID NO 6 (receptor)
chain: B5 chain with M178D, W180N
In experiment [1], B7 yielded a Kd of at most 1000 nM and a koff of at most 2 s⁻¹.

B8: SEQ ID NO 25 (receptor)
chain: B5 chain with M178V, S179A, S181A
Turning to B8, in experiment [1], the Kd was at most 1000 nM and the koff is at most 2 s⁻¹.

B9: SEQ ID NO 49 (receptor)
chain: B5 chain with V22L
For the molecule B9, in experiment [1], the Kd is at most 1000 nM and the koff was at most 2 s⁻¹.

B10: SEQ ID NO 50 (receptor)
chain: B5 chain with V22L, S181A
With B10, in experiment [1], the Kd was at most 1000 nM and the koff is at most 2 s⁻¹.

B11: SEQ ID NO 42 (receptor)
chain: B5 chain with V22L, M178D, W180N
In experiment [1], B11 displayed a Kd of at most 1000 nM and a koff of at most 2 s⁻¹.

B12: SEQ ID NO 24 (receptor)
chain: B5 chain with M178P, S179I, S181T
B12: in experiment [1], the Kd is at most 1000 nM and the koff is at most 2 s⁻¹.

B13: SEQ ID NO 27 (receptor)
chain: B5 chain with M178P, S179A, S181T
Turning to B13, in experiment [1], the Kd is at most 1000 nM and the koff is at most 2 s⁻¹.

B14: SEQ ID NO 26 (receptor)
chain: B5 chain with S179N, S181A
In experiment [1], B14 displayed a Kd of at most 1000 nM and a koff of at most 2 s⁻¹.

B15: SEQ ID NO 68 (receptor)
chain: MGHLPKPTLWAEPGSVITMDQPVTLRCQGGQETQEYRLYREKKTAPWITRIPQELVKKGQFPIPSITWEHAGRYRCYYGSDTSQWSASSDPLELVVTGVYIKPTLSAQPSPVVNSGGNVTLQCDSPFIADGFILCKEGEDEHPQCLNSQPHARGSSRAIFSVGPVSPSRRWWYRCYAYMSWSPYEWSLPSDLLELDVDG
Consider B15, for which, in experiment [1], the Kd was at most 1000 nM and the koff was at most 2 s⁻¹.

B16: SEQ ID NO 33 (receptor)
chain: MGHLPKPTLWAEPGSVITMDQPVTLRCQGGQETQEYRLYREKKTAPWITRIPQELVKKGQFPIPSITWEHAGRYRCYYGSDTAGRSESSDPLELVVTGVYIKPTLSAQPSPVVNSGGNVTLQCDSQVAFDGFILCKEGEDEHPQCLNSQPHARGSSRAIFSVGPVSPSRRWWYRCYAYVAWAPYEWSLPSDLLELDVDG
In the case of B16, in experiment [1], the Kd is at most 1000 nM and the koff is at most 2 s⁻¹.

B17: SEQ ID NO 62 (receptor)
chain: B15 chain with I128L, A129T
Turning to B17, in experiment [1], the Kd is at most 1000 nM and the koff is at most 2 s⁻¹.

B18: SEQ ID NO 61 (receptor)
chain: B15 chain with F127W, I128V
In experiment [1], B18 gave a Kd of at most 1000 nM and a koff of at most 2 s⁻¹.

B19: SEQ ID NO 65 (receptor)
chain: B15 chain with D130E
As to B19, in experiment [1], the Kd was at most 1000 nM and the koff was at most 2 s⁻¹.

B20: SEQ ID NO 69 (receptor)
chain: B15 chain with P126M, I128L, A129V
With B20, in experiment [1], the Kd is at most 1000 nM and the koff is at most 2 s⁻¹.

B21: SEQ ID NO 66 (receptor)
chain: B15 chain with I128L, A129S, R170K
In experiment [1], B21 displayed a Kd of at most 1000 nM and a koff of at most 2 s⁻¹.

B22: SEQ ID NO 31 (receptor)
chain: B16 chain with V179P, A180I, A182T
In experiment [1], B22 showed a Kd of at most 1000 nM and a koff of at most 2 s⁻¹.

B23: SEQ ID NO 63 (receptor)
chain: B15 chain with F127W, I128L
In experiment [1], B23 registered a Kd of at most 1000 nM and an off-rate (koff) of at most 2 s⁻¹.

B24: SEQ ID NO 67 (receptor)
chain: B15 chain with I128V, A129S
As to B24, in experiment [1], the Kd was at most 1000 nM and the koff was at most 2 s⁻¹.

B25: SEQ ID NO 64 (receptor)
chain: B15 chain with I128Q
B25: in experiment [1], the Kd was at most 1000 nM and the koff was at most 2 s⁻¹.

B26: SEQ ID NO 37 (receptor)
chain: B16 chain with V179P, A182T
Regarding B26, in experiment [1], the Kd is at most 1000 nM and the koff is at most 2 s⁻¹.

B27: SEQ ID NO 39 (receptor)
chain: B16 chain with V179M, A180S
In the case of B27, in experiment [1], the Kd was at most 1000 nM and the koff was at most 2 s⁻¹.

B28: SEQ ID NO 41 (receptor)
chain: B16 chain with V179M, A180S, A182S
In experiment [1], B28 came in with a Kd of at most 1000 nM and a koff of at most 2 s⁻¹.

B29: SEQ ID NO 35 (receptor)
chain: B16 chain with V179M, A180N
In experiment [1], B29 gave a Kd of at most 1000 nM and a koff of at most 2 s⁻¹.

For the origin of these results see patent publication US20110172168A1 (MEDIGENE, published 2011).
